B1: TASK-1: N53A (protein)
parent chain: MKRQNVRTLALIVCTFTYLLVGAAVFDALESEPELIERQRLELRQQELRARYNLSQGGYEELERVVLRLKPHKAGVQWRFAGSFYFAITVITTIGYGHAAPSTDGGKVFCMFYALLGIPLTLVMFQSLGERINTLVRYLLHRAKKGLGMRRADVSMANMVLIGFFSCISTLCIGAAAFSHYEHWTFFQAYYYCFITLTTIGFGDYVALQKDQALQTQPQYVAFSFVYILTGLTVIGAFLNLVVLRFMTMNAEDEKRDAEHRALLTRNGQAGGGGGGGSAHTTDTASSTAAAGGGGFRNVYAEVLHFQSMCSCLWYKSREKLQYSIPMIIPRDLSTSDTCVEQSHSSPGGGGRYSDTPSRRCLCSGAPRSAISSVSTGLHSLSTFRGLMKRRSSV
B2: TASK-1: S55A (protein)
parent chain: B1 parent chain

What was measured:
[1] = ratio of TEVC current to surface expression; details: glycan lost; control: wild type
[2] = TEVC, co-expression in Xenopus oocytes, +40 mV; details: glycan lost; control: TASK-3 WT alone

| Protein | other: conductivity (current / surface expression ratio) [1] | other: current of co-expressed TASK-3 [2] |
| --- | --- | --- |
| B1 | no change | no change |
| B2 | no change | – |

Reference: article PMC4726246
